Like-named read-outs stand apart in the source and are kept apart here.
Legend:
yeast Arp2/3 complex [1] = target: T1, yeast Arp2/3 complex (yeast, UniProt P32381 1-391; P47117 1-449; P38328 1-384; P53731 1-342; Q05933 1-178; P33204 …); assay: AUC
yeast Arp2/3 complex [2] = target: T1, yeast Arp2/3 complex; assay: fluorescence polarisation
[3] = target: ArpC1/Arc40 (subunit of yeast Arp2/3 complex) (yeast, UniProt P38328 1-384); assay: cross-linking
[4] = target: Arp3 (subunit of yeast Arp2/3 complex) (yeast, UniProt P47117 1-449); assay: cross-linking
yeast Arp2/3 complex [5] = target: T1, yeast Arp2/3 complex; assay: fluorescence polarisation; remark: listed apart in the source

Sequence of Arp3 (subunit of yeast Arp2/3 complex) (P47117 whole entry, one chain of several): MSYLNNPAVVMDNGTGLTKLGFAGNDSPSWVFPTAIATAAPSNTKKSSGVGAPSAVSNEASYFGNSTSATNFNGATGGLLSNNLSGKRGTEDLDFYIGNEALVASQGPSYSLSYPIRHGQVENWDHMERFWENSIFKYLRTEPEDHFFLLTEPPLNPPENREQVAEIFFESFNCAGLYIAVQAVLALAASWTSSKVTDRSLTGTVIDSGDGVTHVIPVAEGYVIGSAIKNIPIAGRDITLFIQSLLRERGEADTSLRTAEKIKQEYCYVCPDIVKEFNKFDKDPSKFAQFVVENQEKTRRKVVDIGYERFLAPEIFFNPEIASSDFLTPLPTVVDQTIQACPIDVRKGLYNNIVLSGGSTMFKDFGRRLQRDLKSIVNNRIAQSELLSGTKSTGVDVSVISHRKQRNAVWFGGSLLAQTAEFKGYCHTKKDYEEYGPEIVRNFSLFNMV
Sequence of ArpC1/Arc40 (subunit of yeast Arp2/3 complex) (P38328 whole entry, one chain of several): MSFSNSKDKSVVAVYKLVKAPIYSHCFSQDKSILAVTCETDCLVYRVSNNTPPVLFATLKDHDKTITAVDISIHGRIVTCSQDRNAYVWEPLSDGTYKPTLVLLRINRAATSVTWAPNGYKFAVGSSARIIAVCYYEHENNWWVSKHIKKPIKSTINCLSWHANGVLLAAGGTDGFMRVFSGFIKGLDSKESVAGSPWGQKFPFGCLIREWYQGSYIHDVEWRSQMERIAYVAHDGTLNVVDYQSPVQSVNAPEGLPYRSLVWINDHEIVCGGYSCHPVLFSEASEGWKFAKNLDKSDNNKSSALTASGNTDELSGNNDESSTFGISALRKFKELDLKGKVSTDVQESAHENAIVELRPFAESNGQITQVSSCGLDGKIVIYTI

KD of the first binding site (yeast Arp2/3 complex [1]) [nM]	KD of the second binding site (yeast Arp2/3 complex [1]) [nM]	stoichiometry N (yeast Arp2/3 complex [1])	Kd (yeast Arp2/3 complex [2]) [nM]	binding result [3]	binding result [4]	Kd (yeast Arp2/3 complex [5]) [nM]	Binder
< 30	~2000	~2 Gmf1-GFP per Arp2/3 complex	13 ± 2	–	–	–	Gmf1-GFP (natural protein, S. cerevisiae, UniProt Q12156 1-149, looked up) MSNLYKIGTETRNKIKKFRTSTARTDSIKALSIKIEPKPSYEIIVDEDEQEELDEIEDLSELAEILPDNSPRFVLTAYPTTTKDGFKQTPLVLVYWKPMTVVSQEWKMLYAGALEMIREECGTFKLIEVSSGLEDDSDVEELREQLENC
–	–	–	–	binds	binds	10 ± 3	wild-type Gmf1 (untagged) (natural protein, S. cerevisiae, UniProt Q12156 1-149, looked up) MSNLYKIGTETRNKIKKFRTSTARTDSIKALSIKIEPKPSYEIIVDEDEQEELDEIEDLSELAEILPDNSPRFVLTAYPTTTKDGFKQTPLVLVYWKPMTVVSQEWKMLYAGALEMIREECGTFKLIEVSSGLEDDSDVEELREQLENC
